From the supplement of paper PMC9170038

What was measured:
MS2 coat protein [1] = assay: apparent KD of MS2 coat protein, switch OFF state (with FMN for OFF switches, without FMN for ON switches); designed switch direction (-1 OFF switch, 1 ON switch): -1; higher = weaker reporter binding; settings: FMN input: 0 or 200 uM; Eterna round: R93 (includes R88 designs)
Method in brief: (§1)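 Apparent KD is reported per design as the median of normalised binding-curve fits across its clusters. The RNA switches were made by on-chip transcription from Illumina sequencing clusters. SNAP-549-labelled MS2 coat protein was then added in twofold steps (0.7 or 1.5 nM to 3 µM; 0.8–1.5 h to 10–20 min per step) in 100 mM Tris-HCl pH 7.5, 80 mM KCl, 4 mM MgCl2, without or with constant ligand.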

MS2 coat protein [2] = assay: apparent KD of MS2 coat protein, switch ON state; designed switch direction (-1 OFF switch, 1 ON switch): -1; higher = weaker reporter binding; settings: FMN input: 0 or 200 uM; Eterna round: R93 (includes R88 designs)
Method in brief: as §1

MS2 coat protein [3] = assay: apparent KD of MS2 coat protein; designed switch direction (-1 OFF switch, 1 ON switch): 1; higher = weaker reporter binding
Method in brief: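 An oligonucleotide input, 200 uM small-molecule ligand, or no input was present during titration of SNAP-549-labelled MS2 coat protein, which was doubled from 0.7 or 1.5 nM to 3 µM. Designed RNA switches had been transcribed on Illumina chips by stalled E. coli RNA polymerase. Apparent KD per design is the median over clusters of curves fitted to normalised cluster fluorescence.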

[4] = input ligand: microRNA oligo, concentration not stated
[5] = Eterna round: R95, input ligand: FMN 200 uM
[6] = Eterna round: R95, input ligand: microRNA oligo, concentration not stated
[7] = Eterna round: R95, input ligand: none

Sequence	apparent KD of MS2 coat protein (MS2 coat protein [3]; [4]) [nM]	apparent KD of MS2 coat protein (MS2 coat protein [3]; input ligand: FMN 200 uM) [nM]	apparent KD of MS2 coat protein (MS2 coat protein [3]; input ligand: none) [nM]	further results
AAAAAACAUGAGGAUCACCCAUGUAAGGAUAUCUAAAAUAAAAGAAAAAUAAAGAAAAGGAGAAGGUAUAUGGA [JL wbt mod 24]				apparent KD of MS2 coat protein (MS2 coat protein [1]): 37.3 nM; apparent KD of MS2 coat protein (MS2 coat protein [2]): 27.1 nM
AAAAAACAUGAGGAUCACCCAUGUAAGGAUAUGCUAAAAAACGCAAAAAAAGCGAAUAGCAGAAGGUACAAAAG [Mat - Exclusion 1 - Eli mod - D81]				apparent KD of MS2 coat protein (MS2 coat protein [1]): 70.5 nM; apparent KD of MS2 coat protein (MS2 coat protein [2]): 36.4 nM
UGUUGUAUUACAGGAUAUCUAUUAUUUUUUUUUAGAGAAGGGUAUUCACAUGAGGAUCACCCAUGUAUAUACGAGGAAGUUGUG [JMF's solution 23] (Eterna round: R96, puzzle: Same State NG 1)	45.5			
UGUUGUAUUACAGGAUAUCUGUUAUUUUUAUUUAGAGAAGGGUAUUCACAUGAGGAUCACCCAUGUAUAUACGAGGAAGUUGUG [JMF's solution 7] (Eterna round: R96, puzzle: Same State NG 1)	40.8			
UGUUGUUAAUUAGGAUAUGGUCACAUGAGGAUCACCCAUGUAAUGUCGAUGCUAUGUGGAUUUGAUCAGAAGGAAUGGCUAACA [SameState NG2 #97] (Eterna round: R96, puzzle: Same State NG 2)	242	105	341	
UUAAGCCGCGGGCAGGAUAUGUAUUAAAAUACAUGAGGAUCACCCAUGUGCAGGUGUAACACCUGACAGAAGGGCCAAUCGCGGC [Soteed - 5] (puzzle: Same State 2)				apparent KD of MS2 coat protein (MS2 coat protein [3]; [5]): 21.2 nM; apparent KD of MS2 coat protein (MS2 coat protein [3]; [6]): 116 nM; apparent KD of MS2 coat protein (MS2 coat protein [3]; [7]): 229 nM
UUAAUGAAGUAAGGAUAUACAUGAGGAAUUCUCGUAGAAGGUACUAUACAUGAGGAUCACCCAUGUGCCGGUCAGAAGACUGGA [Mat - Same State NG 1 - JL mod - D11] (Eterna round: R96, puzzle: Same State NG 1)	302	454	415	
UUAAUUUAUUGAGGAUAUUAUGUCGACUGAGUUGACAUGAGGAUCACCCAUGUGAGAAGUGGUAUUAAGAAGGCAAUAUUCAUA [JR_SSNG2_Sub087] (Eterna round: R96, puzzle: Same State NG 2)	118	39.8	115	
UUACUCAUGUAAGGAUAUGCAGCCGAAACGGCUGCAGAAGGUACUAUAAUACAUGAGGAUCACCCAUGUAAAAUAAAUAAAGUU [Mat - Same State NG 1 - JL mod - D97] (Eterna round: R96, puzzle: Same State NG 1)	32	29.1	35.9	
UUACUCAUGUAAGGAUAUGCAGCCGUUUCGGCUGCAGAAGGUACUAUAAUACAUGAGGAUCACCCAUGUCUCUAUUAUUUAGUG [salish99_SSNG1_r04_922] (Eterna round: R96, puzzle: Same State NG 1)	39.9			
UUACUCAUGUAAGGAUAUGCAGCCGUUUCGGCUGCAGAAGGUACUAUAAUACAUGAGGAUCACCCAUGUCUUUUUAAUUUAGAC [JL SSNG1 1.29] (Eterna round: R96, puzzle: Same State NG 1)	30.7	56.2	47.8	
UUAUAACAUGAGGAUCACCCAUGUCAUCUAAGUCGAGGAUAUGGGCAAAUAAUAUAAGAACCAGAAGGCGAAUAUU [Mat - Same State 1 - Mod of UCT - D46] (puzzle: Same State 1)				apparent KD of MS2 coat protein (MS2 coat protein [3]; [5]): 106 nM; apparent KD of MS2 coat protein (MS2 coat protein [3]; [6]): 147 nM; apparent KD of MS2 coat protein (MS2 coat protein [3]; [7]): 232 nM
UUAUCCUUUUUUUACAUGAGGAUCACCCAUGUUUUUCUUACGUAGGAUAUCGUUGUUUUUUUUUACGAGAAGGACGUAGUAUGU [JR_SSND3_Sub062] (Eterna round: R96, puzzle: Same State NG 3)	30.4	35.8	36.5	
UUAUCGCUUGGAGGAUAUCCAACUAUACUAAUUGGAGAAGGCCAAGCUACAGAGCUAAGCUUGGAAGUCACUUCGAAUCAACAC [pwkr ssNG1 F9.3] (Eterna round: R96, puzzle: Same State NG 1)	5.18	33.2	48.8	
